# Measured values taken from patent US20250129140A1, “ANTI-HCMV ANTIBODIES AND ANTIGEN-BINDING FRAGMENTS THEREOF” (ICAHN SCHOOL OF MEDICINE AT MOUNT SINAI, priority 2021, published 2025).
# Legend:
# HCMV = assay: Virus neutralization, summary statements across cell types and strains; type: cell-based, Human cytomegalovirus; conditions: MRC5; TB40/E, AD169R, TR, Towne
# Experimental: AD169R^BADrUL131, TB40E, TR, or Towne was pre-incubated with monoclonal antibodies (starting dilution of 100 μg/mL antibody) was diluted using 5 fold dilutions to achieve a final range of 50-0.016 μg/mL antibody after addition to 25 μL of media containing virus; final MOI 0.2) and incubated at 4° C. for 1 hr before the inoculum was added to the appropriate cell types (ARPE-19, HTR-svNeo, MRC5, or NHDF cells at 10,000 cells per well) for 2 hrs at 37° C., 5% CO2. Following infection, the inoculum was removed and replaced with 100 μL complete DMEM/F-12 media before an overnight incubation at 37° C., 5% CO2.
# Cells were fixed using 4% paraformaldehyde (PFA) for 20 minutes at room temp. Cells were then permeabilized using 0.3% Triton X-100 (Thermo Fisher, #HFH10) in PBS and stained with an affinity-purified, polyclonal rabbit anti-IE1-1/2 (0.7 ng/ml) primary and an anti-rabbit Alexa Fluor 647 (1:1000) secondary. To quantify total cells per well, Hoechst (Molecular Probes, #H3570) was diluted 1:100,000 in PBS and incubated with cells for 20 minutes at room temp. Virus neutralization was quantified using a Celigo cytometer (Nexelcom Bioscience). Percent infection was calculated using ((#IE1-1+)/(#Hoechst+))*100 events per well and normalized to the percent infection when an irrelevant, non-neutralizing, or no antibody was used.
# The student's unpaired, two tailed t tests were performed using the GraphPad Prism software (La Jolla, CA). An asterisk identifies statistical significance of P<0.05 or less.
# TB40/E UL32-eGFP virus = assay: Virus attachment assay on ARPE-19 cells; type: cell-based, Human cytomegalovirus; conditions: 10 μg/mL, 0 or 120 minutes
# Experimental: ARPE-19 cells were plated in glass bottom 12 well plates the day before infection. […] Infection occurred at 37° C. for 0-2 hrs before cells were washed using a citrate wash buffer (pH 3.2) for two minutes at RT. Cells were then washed with PBS and fixed in 4% PFA for 20 minutes at RT before being stained with Hoechst. Plates were read using a Cytation 3 Cell Imaging Multi-Mode Reader (BioTek, Winooski, VT) and images were acquired using brightfield and the 405 and 488 nm lasers.
# To visualize HCMV virion attachment and entry, a recombinant HCMV strain was used that expresses eGFP fused to the C terminus of the tegument protein pUL32. The tegument protein is tightly associated with the capsid and allows for visualization of virus entry by immunofluorescence. […] Cells were incubated with the virus/antibody for either 0 or 120 minutes before being washed with citrate buffer (pH 3.2) for two minutes and fixed with PFA.
# HCMV AD169R [1] = assay: Neutralization by fully human versus chimeric antibody versions; type: cell-based, Human cytomegalovirus; conditions: fully human (hu) version, human IgG1 Fc
# Experimental: Increasing concentrations of monoclonal antibodies (0.016-50 μg/mL) were incubated with AD169R (MOI 0.2) to assess neutralizing capacity. Percent infection was quantified using GFP expression at 18 hpi and normalized based on infection with virus alone (no antibody). CMV hyperimmune globulin (CytoGam®) was used as a control (trace on the upper right in FIGS. 8A, 8B, 8C, and 8D). FIG. 8A. […] FIG. 8B. Fully human (hu, comprising human variable and human constant regions) and chimeric (ms, comprising human variable and murine constant regions) versions of 9A12. FIG. 8C. Fully human (hu, comprising human variable and human constant regions) and chimeric (ms, comprising human variable and murine constant regions) versions of 13G1. FIG. 8D. Fully human (hu, comprising human variable and human constant regions) and chimeric (ms, comprising human variable and murine constant regions) versions of 14E1.
# For this, the mouse Fc region of these mAbs was replaced with the human IgG1 Fc region.
# HCMV AD169R [2] = assay: FFU assay in ARPE-19 cells in combination with ganciclovir; type: cell-based, Human cytomegalovirus; conditions: combined with ganciclovir (2.5 μM); antibody 10 μg/mL; Day 12
# Experimental: Relative number of plaques present 12 dpi in ARPE-19 cells infected with AD169R. Infection was performed in the presence of antibody at three different concentrations +/−ganciclovir (2.5 μM). On day 12 post infection GFP images were taken and the plaque number was calculated relative to virus alone controls on each plate. M2E10 and CytoGam® were used as negative and positive controls respectively. Each condition was done in triplicate and 10,000 μm^2 was used as a cutoff for plaque area.
# ARPE-19 or NHDF cells were plates at 50,000 cells per well in a 24 well and infected the following day. TB40/E (MOI 0.01) and AD169RBAD^rUL131 (MOI 0.1 & 0.01) was incubated with either 10 μg/mL or 0.5 μg/mL of antibody one hour prior to addition to cells. Following a 2 hr incubation at 37° C., 5% CO2 the inoculum was removed, and cells were overlaid with 1% low melt temperature sea agarose overlay. The overlay was allowed to solidify at room temp and then 500 μL of media was added before cells were put back into the incubator. […]
# To test efficacy of the gH antibodies in combination with ganciclovir, the FFU assay was performed in ARPE-19 cells. […] M2E10 and CytoGam® were used as negative and positive controls respectively and the relative number of plaques was calculated based on cells which received virus alone without any antibody (black bar for each graph). […]
# [3] = test system: recombinant HCMV pentamer (strain VR1814) consisting of gH, gL, UL128, UL130 and UL131A; assay: Biolayer interferometry (Octet RED) KD determination; type: binding, Human cytomegalovirus
# Experimental: Biolayer interferometry assays were performed using the Octet RED instrument (ForteBio, Inc.) to determine the association (kon) and dissociation (kdis) constants for each antibody. Purified monoclonal antibody was loaded onto the anti-mouse Fc IgG capture (AMC) biosensors using 5-fold dilutions (50-0.016 μg/mL in PBS) for 10 minutes. To determine the kon, the sensors were exposed to the recombinant HCMV pentamer (strain VR1814) consisting of gH, gL, UL128, UL130 and UL131A (Native Antigen, CMV-PENT-100) at a constant concentration of 100 μg/mL in PBS for 3 minutes. To determine the kdis, dissociation was measured over the course of 3 minutes while the sensors were in PBS buffer. KD values were calculated as a ratio of […].
# To examine this further, 293 Expi cells were transfected with wildtype gH, wildtype gL, cotransfected with gH and gL (gH+gL), transfected with a single plasmid expressing both gH and gL (gH/gL) or co-transfected a variety of gH mutants and gL. Three days post transfection the cells were harvested and stained with unlabeled primary at 0.5 μg/mL using the antibodies indicated. Transfection efficiency was determined by measuring GFP expression on day 3 and binding was determined by percent Alexa Fluor 647 positive cells using a conjugated secondary. […] The binding profile for 1G9 is most similar to 10F8. Although the ratios of gH, gL and gO plasmid were 1:1:1 it is not certain how efficiently the trimer was assembled following transfection. […] To discern minute differences in antibody binding biolayer interferometry was used, immobilizing each of the purified monoclonal antibodies (50-0.016 μg/mL) onto anti-mouse IgG Fc capture (AMC) biosensors and exposing the sensors to recombinant pentamer (100 μg/mL).
molecule,measurement,setting,value
"15G11: anti-HCMV gH/gL monoclonal antibody, fusion 1; VH SEQ ID NO:52, VL SEQ ID NO:53; chimeric and fully human IgG1 versions (antibody, V domains shown, IgG1 constant regions, anti-HCMV gH/gL monoclonal antibody, fusion 1; chimeric and fully human IgG1 versions) VH: QVQLQESGPGLVKPSQTLSLTCTVSGGSISSGYYYWNWIRQHPGKGLECIGYIYYSGTTYYNPSLKSRLFISVDTSKNQFSLKLRSVTAADTAVYYCARGGLGAFDIWGQGTMVTVSS VL: EIVLTQSPGTLSLSPGERATLSCRASQSVSSSYLAWYQQKPGQAPRLLIYGASSRAPGIPDRFSGTGSGTDFTLTISRLEPEDFAVYYCQQYGISPLTFGGGTKVEIK",neutralization of infection across all strains,HCMV,consistently neutralized infection
same,number of virions bound to the cells,TB40/E UL32-eGFP virus,did not significantly change
same,"IC50 of infection, version with human constant regions",HCMV AD169R [1],0.37 µg/mL
same,reduction in plaques,HCMV AD169R [2],95%
same,kdis,[3]; dissociation 3 minutes in PBS,8.69e-05 s⁻¹
same,rank of binding constant within the panel,[3]; recombinant pentamer,strongest
